The record followed here is publication PMC5180104, “Interaction of cytokeratin 19 head domain and HER2 in the cytoplasm leads to activation of HER2-Erk pathway” (Scientific Reports, 2016).

The target in this test is T1, purified recombinant Flag-tagged HER2 C-terminal domain (human, UniProt P04626 988-1255).
T1 construct: HER2, human, COOH-terminal domain; C-ter is defined as 988-1255 aa in the plasmid section; The results call this protein Flag-tagged; It may be the same construct as m14; source: HEK293T, transfected, purified (antibody bead column)
Put plainly: pull-down; purified GST fusion proteins and purified HER2 C-terminal domain; Glutathione sepharose 4B (GSH beads). The following applies: both partners purified.

B1: GST-T4 (domain or fragment, human, UniProt P08727 1-79, looked up)
chain: MTSYSYRQSSATSSFGGLGGGSVRFGPGVAFRAPSIHGGSGGRGVSVSSARFVSSSSSGAYGGGYGGVLTASDGLLAGN
notes: KRT19, human, T4 fragment (head domain); also called GST-T4 wt; source: E. coli, purified (Glutathione sepharose 4B column)
As to B1, the binding result is “binds”.
